Data: US20240173426A1 (Regeneron, published 2024)

B1: human FGFR3b expressed with a C-terminal murine Fc tag (hFGFR3b.mFc) (Fc fusion)
chain: ESLGTEQRVVGRAAEVPGPEPGQQEQLVFGSGDAVELSCPPPGGGPMGPTVWVKDGTGLVPSERVLVGPQRLQVLNASHEDSGAYSCRQRLTQRVLCHFSVRVTDAPSSGDDEDGEDEAEDTGVDTGAPYWTRPERMDKKLLAVPAANTVRFRCPAAGNPTPSISWLKNGREFRGEHRIGGIKLRHQQWSLVMESVVPSDRGNYTCVVENKFGSIRQTYTLDVLERSPHRPILQAGLPANQTAVLGSDVEFHCKVYSDAQPHIQWLKHVEVNGSKVGPDGTPYVTVLKSWISESVEADVRLRLANVSERDGGEYLCRATNFIGVAEKAFWLSVHGPRAAEEELVEADEAGSVYAGEPRGPTIKPCPPCKCPAPNLLGGPSVFIFPPKIKDVLMISLSPIVTCVVVDVSEDDPDVQISWFVNNVEVHTAQTQTHREDYNSTLRVVSALPIQHQDWMSGKEFKCKVNNKDLPAPIERTISKPKGSVRAPQVYVLPPPEEEMTKKQVTLTCMVTDFMPEDIYVEWTNNGKTELNYKNTEPVLDSDGSYFMYSKLRVEKKNWVERNSYSCSVVHEGLHNHHTTKSFSRTPGK
notes: called dimeric; also called REGN3153; dimeric human FGFR3b

What was measured:
[1] = biological target: T1, human fibroblast growth factor acidic (hFGF acidic) (human, UniProt P05230 2-155, limits assumed); experiment: ELISA, receptor-Fc on plate-coated hFGF acidic with heparin; fixed concentration said to be chosen near the EC50 of this binding
T1 construct: Bought; coated on the plate with heparin; also called FGF1 acidic

[2] = biological target: T2, human fibroblast growth factor basic (hFGF basic) (human, UniProt P09038 144-288); experiment: ELISA, receptor-Fc on plate-coated hFGF basic with heparin; fixed concentration said to be chosen near the EC50 of this binding
T2 construct: Bought; also called Biolegend 571508

[3] = biological target: T3, human FGFR3b expressed with a C-terminal myc-myc-hexahistidine tag (hFGFR3b.mmH) (human); experiment: SPR (Biacore), captured mAb, 25 C
T3 construct: monomeric; also called REGN3152; monomeric human FGFR3b
T3 chain: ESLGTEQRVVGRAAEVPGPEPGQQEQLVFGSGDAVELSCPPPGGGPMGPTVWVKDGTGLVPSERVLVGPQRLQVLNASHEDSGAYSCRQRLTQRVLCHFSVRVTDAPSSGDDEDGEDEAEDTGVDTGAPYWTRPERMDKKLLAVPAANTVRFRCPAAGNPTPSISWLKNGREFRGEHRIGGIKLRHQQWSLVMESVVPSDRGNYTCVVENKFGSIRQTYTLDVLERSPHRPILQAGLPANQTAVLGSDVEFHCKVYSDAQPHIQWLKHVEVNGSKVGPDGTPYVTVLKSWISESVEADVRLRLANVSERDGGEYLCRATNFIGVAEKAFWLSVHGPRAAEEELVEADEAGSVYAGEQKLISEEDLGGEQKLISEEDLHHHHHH
Procedure: (§1) The CM5 Biacore sensor surface was derivatized by amine coupling with a monoclonal mouse anti-human Fc monoclonal antibody (REGN2567). All Biacore binding studies were performed in a buffer composed of 0.01M HEPES pH 7.4, 0.15 M NaCl, 3 mM EDTA, 0.05% v/v Surfactant P20 (HBS-EP running buffer). […] Antibody-reagent association was monitored for 5 minutes while dissociation in HBS-EP running buffer was monitored for 10 minutes. At the end of each cycle, the anti-FGFR3 antibody capture surface was regenerated using a 10 sec injection of 20 mM phosphoric acid. All binding kinetics experiments were performed at 25° C.
(§2) The specific SPR-Biacore sensorgrams were obtained by a double referencing procedure. The double referencing was performed by first subtracting the signal of each injection over a reference surface (anti-hFc) from the signal over the experimental surface (anti-hFc-captured anti-FGFR3 antibodies) thereby removing contributions from refractive index changes. In addition, running buffer injections were performed to allow subtraction of the signal changes resulting from the dissociation of captured antibodies from the coupled anti-hFc surface. Kinetic association (kₐ) and dissociation (kd) rate constants were determined by fitting the real-time sensorgrams to a 1:1 binding model using Scrubber v2.0c curve fitting software.

[4] = biological target: T4, murine FGFR3b expressed with a C-terminal myc-myc-hexahistidine tag (mFGFR3b.mmH) (mouse); experiment: SPR (Biacore), captured mAb, 25 C
T4 construct: monomeric; also called REGN3215; monomeric murine FGFR3b
T4 chain: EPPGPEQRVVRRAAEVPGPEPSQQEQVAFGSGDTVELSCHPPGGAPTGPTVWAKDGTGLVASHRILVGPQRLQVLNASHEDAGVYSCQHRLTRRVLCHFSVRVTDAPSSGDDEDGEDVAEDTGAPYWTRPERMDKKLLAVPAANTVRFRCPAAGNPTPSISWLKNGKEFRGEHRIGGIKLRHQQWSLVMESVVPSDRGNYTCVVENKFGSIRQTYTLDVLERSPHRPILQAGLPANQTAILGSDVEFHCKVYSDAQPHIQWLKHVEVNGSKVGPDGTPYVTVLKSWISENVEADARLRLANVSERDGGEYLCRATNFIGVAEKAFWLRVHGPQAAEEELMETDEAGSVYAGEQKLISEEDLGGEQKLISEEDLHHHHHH
Procedure: as §1, §2

[5] = biological target: T5, human FGFR3c expressed with a C-terminal myc-myc-hexahistidine tag (hFGFR3c.mmH) (human, UniProt P22607 23-375); experiment: SPR (Biacore), captured mAb, 25 C
T5 construct: monomeric; also called REGN3155; monomeric human FGFR3c
Procedure: as §1, §2

[6] = biological target: B1; experiment: SPR (Biacore), captured mAb, 25 C
Procedure: as §1, §2

[7] = biological target: T3, human FGFR3b expressed with a …; experiment: SPR (Biacore), recombinant human FGFR3 protein

T1 sequence (P05230 2-155 limits assumed, form in doubt): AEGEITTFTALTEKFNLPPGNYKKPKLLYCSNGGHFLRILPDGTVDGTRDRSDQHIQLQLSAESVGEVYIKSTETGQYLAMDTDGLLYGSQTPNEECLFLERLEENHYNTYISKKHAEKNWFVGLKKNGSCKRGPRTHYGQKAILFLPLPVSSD
T2 sequence (P09038 144-288, form in doubt): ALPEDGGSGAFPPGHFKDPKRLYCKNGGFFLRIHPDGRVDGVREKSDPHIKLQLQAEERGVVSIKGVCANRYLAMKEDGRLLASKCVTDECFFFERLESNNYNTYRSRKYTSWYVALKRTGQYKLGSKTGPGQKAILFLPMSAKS

Binder | EC50 [1] [nM] | EC50 [2] [nM] | t½ [3] [min] | t½ [4] [min] | t½ [5] [min] | t½ [6] [min] | Kd [7] [nM]
B1 | ~4 | – | – | – | – | – | –
hFGFR3c-hFc (Fc fusion, human, UniProt P22607 23-375, looked up, range 23-375; Bought (R&D Systems); also called human FGFR3c extracellular domain with human IgG1 Fc; R&D Systems 766-FR-050; not shown: Fc portion of human IgG1 at the C-terminus, amino acids Pro100-Lys330) ESLGTEQRVVGRAAEVPGPEPGQQEQLVFGSGDAVELSCPPPGGGPMGPTVWVKDGTGLVPSERVLVGPQRLQVLNASHEDSGAYSCRQRLTQRVLCHFSVRVTDAPSSGDDEDGEDEAEDTGVDTGAPYWTRPERMDKKLLAVPAANTVRFRCPAAGNPTPSISWLKNGREFRGEHRIGGIKLRHQQWSLVMESVVPSDRGNYTCVVENKFGSIRQTYTLDVLERSPHRPILQAGLPANQTAVLGSDVEFHCKVYSDAQPHIQWLKHVEVNGSKVGPDGTPYVTVLKTAGANTTDKELEVLSLHNVTFEDAGEYTCLAGNSIGFSHHSAWLVVLPAEEELVEADEAGSVYAG | ~0.4 | ~7 | – | – | – | – | –
H4H30093P2 (antibody, human IgG4 S228P, kappa, V domains shown) VH: QVQLVESGGGLVKPGGSLRLSCAASGFTFNDYPMSWIRQAPGKGLEWVSYITSSSGSTIYYADSVKGRFTISRDNAKNSLYLQMNSLRAEDTAVYYCAREVVVATIGGYYGMDVWGQGTTVTVSS VL: not shown | – | – | 5.5 | 1.2 | 3.5 | 745 | 9.06
